This is an account of results in patent US20260078341A1 (published 2026).

Substitutions are numbered along the chain they refer to.

B1: P2-4BBZ CAR (other)
chain: DYKDDDDKEVQLVQSGAEVKKPGSSVKVSCKASGGTFSSYAISWVRQAPGQGLEWMGGIIPIFGTANYAQKFQGRVTITADESTSTAYMELSSLRSEDTAVYYCAREEGPYCSSTSCYAAFDIWGQGTLVTVSSGGGGSGGGGSGGGGSQSVLTQDPAASVALGQTVKITCQGDSLRSYFASWYQQKPGQAPTLVMYARNDRPAGVPDRFSGSKSGTSASLAISGLQSEDEADYYCAAWDDSLNGYLFGAGTKLTVLTTTPAPRPPTPAPTIASQPLSLRPEACRPAAGGAVHTRGLDFACDIYIWAPLAGTCGVLLLSLVITLYCKRGRKKLLYIFKQPFMRPVQTTQEEDGCSCRFPEEEEGGCELRVKFSRSADAPAYKQGQNQLYNELNLGRREEYDVLDKRRGRDPEMGGKPRRKNPQEGLYNELQKDKMAEAYSEIGMKGERRRGKGHDGLYQGLSTATKDTYDALHMQALPPR
B2: P3-5BBZ CAR (other)
chain: B1 chain with M56V, T77K, T84A, A119G, A159V, F180L, M196T
B3: C10-BBZ CAR (other)
chain: B1 chain with A119G, A159V

The target of the first assay is T1, EGFR on cells (tumor lines, primary cell lines, K562 cells electroporated with EGFR mRNA, A431) (UniProt P00533 25-1210). The experiment in a line: not stated; affinity of the scFv.
Broadly, the Kd is the concentration at which binding is half-saturated. A high value points to a looser complex. On to B1, for which the Kd worked out at 15.4 nM.

Regarding B2, binding was characterised by a dissociation constant (Kd) of 88.2 nM.

As for B3, the Kd came out at 264 nM.

For a further assay, the target named is T1, EGFR on cells (tumor lines, primary …). Nature of the assay: not stated; affinity of the scFv. The source holds these as a separate data set.
As to B1, the Kd was 15.4 nM.

B2: binding was characterised by a dissociation constant (Kd) of 88.2 nM.

The molecule B3 gave a Kd of 264 nM.
